The chains are these.
B1: designer BMP-GER (ligand)
chain: QAKHKQRKRLKSSCKRHPLYVDFSDVGWNDWIIAPRGYAAFYCDGECSFPLNAHMNATNHAIVQTLVHLMNPEYVPKPCCAPTELNAISVLYFDDNSNVILKNYQDMVVEGCGCR
notes: also called BMPGE P36R
B2: ALK2 receptor-human-IgG1-Fc fusion protein (Fc fusion, UniProt Q04771 21-123, looked up)
chain: MEDEKPKVNPKLYMCVCEGLSCGNEDHCEGQQCFSSLSINDGFHVYQKGCFQVYEQGKMTCKTPPSPGQAVECCQGDWCNRNITAQLPTKGKSFPGTQNFHLE
notes: extracellular domain; also called ActRIa; ActRI; not shown: human IgG1 Fc
B3: Noggin (other, UniProt Q13253 28-232, looked up)
chain: QHYLHIRPAPSDNLPLVDLIEHPDPIFDPKEKDLNETLLRSLLGGHYDPGFMATSPPEDRPGGGGGAAGGAEDLAELDQLLRQRPSGAMPSEIKGLEFSEGLAQGKKQRLSKKLRRKLQMWLWSQTFCPVLYAWNDLGSRFWPRYVKVGSCFSKRSCSVPEGMVCKPSKSVHLTVLRWRCQRRGGQRCGWIPIQYPIISECKCSC
B4: ActRIIB receptor-human-IgG1-Fc fusion protein (Fc fusion, UniProt Q13705 19-137, looked up)
chain: SGRGEAETRECIYYNANWELERTNQSGLERCEGEQDKRLHCYASWRNSSGTIELVKKGCWLDDFNCYDRQECVATEENPQVYFCCCEGNFCNERFTHLPEAGGPEVTYEPPPTAPTLLT
notes: extracellular domain; See note of m11; also called ATRIIB; not shown: human IgG1 Fc
B6: wild type BMP2 homodimer (ligand)
chain: QAKHKQRKRLKSSCKRHPLYVDFSDVGWNDWIVAPPGYHAFYCHGECPFPLADHLNSTNHAIVQTLVNSVNSKIPKACCVPTELSAISMLYLDENEKVVLKNYQDMVVEGCGCR
modifications: N-linked glycan at N56 (CHO-produced)
notes: also called BMP2WT; WT BMP2
B7: ALK6 receptor-human-IgG1-Fc fusion protein (Fc fusion, UniProt O00238 14-126, looked up)
chain: KKEDGESTAPTPRPKVLRCKCHHHCPEDSVNNICSTDGYCFTMIEEDDSGLPVVTSGCLGLEGSDFQCRDTPIPHQRRSIECCTERNECNKDLHPTLPPLKNRDFVDGPIHHR
notes: extracellular domain; See note of m11; also called BMPRIb; not shown: human IgG1 Fc
B8: ALK3 receptor-human-IgG1-Fc fusion protein (Fc fusion, UniProt P36894 24-152, looked up)
chain: QNLDSMLHGTGMKSDSDQKKSENGVTLAPEDTLPFLKCYCSGHCPDDAINNTCITNGHCFAIIEEDDQGETTLASGCMKYEGSDFQCKDSPKAQLRRTIECCRTNLCNQYLQPTLPPVVIGPFFDGSIR
notes: extracellular domain; See note of m11; also called BMPRIa; not shown: human IgG1 Fc
B9: BMPRII receptor-human-IgG1-Fc fusion protein (Fc fusion, UniProt Q13873 27-150, looked up)
chain: SQNQERLCAFKDPYQQDLGIGESRISHENGTILCSKGSTCYGLWEKSKGDINLVKQGCWSHIGDPQECHYEECVVTTTPPSIQNGTYRFCCCSTDLCNVNFTENFPPPDTTPLSPPHSFNRDET
notes: extracellular domain; See note of m11; also called BMPR IIA; BMPRIIA; not shown: human IgG1 Fc

The target in assay [1] is B4. Briefly: ActRIIb affinity; method not given.
The target of assay [2] is B3. Briefly: Noggin affinity; method and unit not stated.
The target in assay [3] is B2. The assay can be described thus: BLI (Octet), receptor-Fc on anti-human IgG tips. As to the method:
(§1) The Octet QK analysis was performed at […] in TBS with 0.1% Tween-20. Samples were agitated at 1000 rpm. […] Each BMP was prepared as a sevenfold serial dilution (typically 200-3 nM in singlicate) plus buffer blanks. Each Receptor/BMP binding pair was run at least in duplicate. Association was monitored for 10 min and dissociation was followed for […] into buffer alone. Kinetic parameters (kon and koff) and affinities (KD) were calculated using the Octet Data Analysis software 6.0 using a partial binding 1:1 model following manufacturer's instructions.

In assay [4] the target is B8. Briefly: BLI (Octet), receptor-Fc on anti-human IgG tips. On the procedure:
as §1

For assay [5], the target named is B7. Briefly: BLI (Octet), receptor-Fc on anti-human IgG tips. On the procedure:
as §1

For assay [6], the target named is T1, ActRIIA receptor-human-IgG1-Fc fusion protein (human, UniProt P27037 20-135, limits assumed).
T1 construct: extracellular domain; See note of m11; not shown: human IgG1 Fc
T1 sequence (P27037 20-135 limits assumed): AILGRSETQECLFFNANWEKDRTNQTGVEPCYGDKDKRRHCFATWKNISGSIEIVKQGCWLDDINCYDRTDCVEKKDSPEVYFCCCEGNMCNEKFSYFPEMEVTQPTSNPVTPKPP
Briefly: BLI (Octet), receptor-Fc on anti-human IgG tips. On the procedure: as §1

Assay [7] concerns the target B4. The assay can be described thus: BLI (Octet), receptor-Fc on anti-human IgG tips. On the procedure: as §1
Assay [8] addresses B9. Briefly: BLI (Octet), receptor-Fc on anti-human IgG tips. As to the method:
as §1

Assay [9] addresses T2, wild type BMP6 homodimer (Homo sapiens (Human), UniProt P22004 375-513, N-linked glycan at N80 (CHO-produced)).
T2 construct: Produced in CHO cells; also called WT BMP6; BMP6/6
T2 sequence: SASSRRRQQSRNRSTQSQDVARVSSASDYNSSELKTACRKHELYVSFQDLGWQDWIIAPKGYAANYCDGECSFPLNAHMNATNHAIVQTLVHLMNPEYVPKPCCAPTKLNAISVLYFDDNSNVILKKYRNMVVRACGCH
Briefly: BLI (Octet), receptor-Fc on anti-human IgG tips; Table 13: weak binding, 700 nM. As to the method:
as §1

In assay [10] the target is T3, designer BMPE (N-linked glycan at N56 (CHO-produced)).
T3 chain: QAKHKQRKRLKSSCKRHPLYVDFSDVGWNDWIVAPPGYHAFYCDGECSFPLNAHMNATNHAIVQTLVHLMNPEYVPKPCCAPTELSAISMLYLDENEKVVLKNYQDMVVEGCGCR
The assay can be described thus: cell-based or functional assay.

In assay [11] the target is B1. The assay can be described thus: cell-based or functional assay.
In assay [12] the target is T2, wild type BMP6 homodimer. The assay can be described thus: BLI (Octet), receptor-Fc on anti-human IgG tips. As to the method:
as §1

For assay [13], the target named is T4, wild type BMP2/6 heterodimer (human, UniProt P12643 283-396; P22004 375-513). Briefly: BLI (Octet), receptor-Fc on anti-human IgG tips. As to the method:
as §1

Assay [14] addresses T2, wild type BMP6 homodimer. The assay can be described thus: BLI (Octet), receptor-Fc on anti-human IgG tips. As to the method:
as §1
The source holds these as a separate data set.

The target of assay [15] is T4, wild type BMP2/6 heterodimer. Briefly: BLI (Octet), receptor-Fc on anti-human IgG tips. As to the method:
as §1
The source holds these as a separate data set.

Assay [16] has as its target T5, ALK2 receptor-human-IgG1-Fc fusion protein (human), Q04771.
T5 chain: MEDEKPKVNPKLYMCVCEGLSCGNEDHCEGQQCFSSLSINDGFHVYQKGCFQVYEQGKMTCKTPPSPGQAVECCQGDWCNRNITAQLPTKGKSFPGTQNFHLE
Briefly: BLI (Octet), receptor-Fc on anti-human IgG tips. To be noted: remark: other sources report otherwise.

The target of assay [17] is B9. Briefly: BLI (Octet), receptor-Fc on anti-human IgG tips. On the procedure:
as §1
This is another data set of the same source.

The target in assay [18] is B6. Briefly: BLI (Octet), receptor-Fc on anti-human IgG tips. On the procedure: as §1
Assay [19] concerns the target B6. The assay can be described thus: BLI (Octet), receptor-Fc on anti-human IgG tips. On the procedure: as §1
This is another data set of the same source.

Like-named read-outs stand apart in the source and are kept apart here.

For B1, the equilibrium dissociation constant (Kd) in assay [1] is 2 nM; in assay [3] it was 2 nM; in [4], 2 nM; in assay [5], 1 nM; in assay [6] it was 2 nM; in assay [7], 0.5 nM. This molecule registered a Kd in assay [8] of 3.5 nM. Besides, the “Noggin Affinity” value in assay [2] was determined as 4.
In assay [9], B2 came in with a Kd of 700 nM.
For B3, the “IC50 (read off the curve)” value in [10] is roughly 0.09 µg/mL; in assay [11], roughly 0.04 µg/mL.
In the case of B4, the Kd came out at 0.5 nM in assay [12], 1 nM in assay [13], 0.5 nM in [14] and 1 nM in assay [15].

B5: wild type BMP2/6 heterodimer, P12643 283-396; P22004 375-513 (ligand)
chain 1: QAKHKQRKRLKSSCKRHPLYVDFSDVGWNDWIVAPPGYHAFYCHGECPFPLADHLNSTNHAIVQTLVNSVNSKIPKACCVPTELSAISMLYLDENEKVVLKNYQDMVVEGCGCR
chain 2: SASSRRRQQSRNRSTQSQDVARVSSASDYNSSELKTACRKHELYVSFQDLGWQDWIIAPKGYAANYCDGECSFPLNAHMNATNHAIVQTLVHLMNPEYVPKPCCAPTKLNAISVLYFDDNSNVILKKYRNMVVRACGCH
For the molecule B5, the Kd in assay [16] stood at 250 nM. That is a sub-micromolar value.
With B6, the Kd in assay [17] and in assay [8] was 62 nM each time.
Regarding B7, the Kd in [18] amounted to 1 nM; in assay [12], 20 nM; in assay [13], 0.5 nM; in assay [19], 1 nM; in assay [14], 20 nM; in [15], 0.5 nM.
Consider B8, for which the Kd in assay [12] and in assay [14] was 11 nM in each case.
As to B9, the Kd in assay [12] turned out to be 4 nM; in assay [13], 3 nM; in assay [14], 4 nM; in assay [15], 3 nM.

B10: designer BMP-E-NR (ligand)
chain: QAKHKQRKRLKSSCKRHPLYVDFSDVGWNDWIVAPPGYHAFYCDGECSFPLNAHMNATNHAIVQTLVHLMNPEYVPKPCCAPTKLRPMSMLYYDDGQNIIKKDIQNMIVEECGCS
In assay [1], B10 yielded a Kd of 0.5 nM. For the same molecule, in assay [2], the “Noggin Affinity” value was determined as 6.

B11: designer BMP-GER-NR (ligand)
chain: QAKHKQRKRLKSSCKRHPLYVDFSDVGWNDWIIAPRGYAAFYCDGECSFPLNAHMNATNHAIVQTLVHLMNPEYVPKPCCAPTKLRPMSMLYYDDGQNIIKKDIQNMIVEECGCS
The molecule B11 displayed a Kd in [1] of 0.07 nM. For the same molecule, in assay [2], the “Noggin Affinity” value worked out at 7.5.

These data come from patent US20160207973A1 (Pfizer, published 2016).
